The target of assay [1] is T1, immunoglobulin-like domain Ig-2 of human Tyro3 (human, UniProt Q06418 139-220).
T1 construct: No fragment of Ig-2 alone was made
T1 sequence: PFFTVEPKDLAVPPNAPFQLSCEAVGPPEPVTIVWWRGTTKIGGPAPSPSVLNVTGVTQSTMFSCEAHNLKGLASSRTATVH
The experiment in a line: double sandwich ELISA on captured fragments of hTyro3 ECD. Background: In an ELISA, binding on a coated surface is turned into a signal by an enzyme label.

Assay [2] has as its target T2, Ig-1 and Ig-2 domains fragment of human Tyro3 ECD, His-Strep tagged (human).
T2 construct: also called Ig1-Ig2 fragment
T2 chain: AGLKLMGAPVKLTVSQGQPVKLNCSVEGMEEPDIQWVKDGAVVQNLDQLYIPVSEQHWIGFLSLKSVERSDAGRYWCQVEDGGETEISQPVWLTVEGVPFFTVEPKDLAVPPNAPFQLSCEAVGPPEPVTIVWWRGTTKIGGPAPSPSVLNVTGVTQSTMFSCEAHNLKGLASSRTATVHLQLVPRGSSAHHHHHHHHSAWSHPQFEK
The experiment in a line: sandwich ELISA, Strep-tagged fragment captured on StrepMAB plate, scFv 10 µg/mL (Table 17), anti-FLAG-HRP.

Assay [3] addresses T3, cynomolgus Tyro3 ECD, His-Strep tagged.
T3 construct: also called cyno TYRO3 ECD 8hisstrep
T3 extracellular domain: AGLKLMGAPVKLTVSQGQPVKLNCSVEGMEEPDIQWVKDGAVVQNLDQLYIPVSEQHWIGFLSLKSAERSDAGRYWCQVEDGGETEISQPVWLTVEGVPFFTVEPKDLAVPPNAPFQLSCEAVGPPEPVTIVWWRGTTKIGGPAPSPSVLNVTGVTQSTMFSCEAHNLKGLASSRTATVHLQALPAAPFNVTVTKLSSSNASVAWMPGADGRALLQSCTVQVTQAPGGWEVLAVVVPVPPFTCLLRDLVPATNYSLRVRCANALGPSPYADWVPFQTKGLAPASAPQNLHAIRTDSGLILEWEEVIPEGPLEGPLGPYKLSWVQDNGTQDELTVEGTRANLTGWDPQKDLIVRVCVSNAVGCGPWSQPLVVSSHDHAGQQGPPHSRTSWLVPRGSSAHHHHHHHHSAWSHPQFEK
Put plainly: sandwich ELISA, Strep-tagged cynomolgus Tyro3 ECD captured on StrepMAB plate, scFv 3-fold from 10 µg/mL, anti-FLAG-HRP. The protocol: [The procedure below names another species; the source lists this species under the same test.] A double sandwich ELISA was developed. This assay consisted in measuring the binding of the anti-Tyro3 antibodies to be tested on immobilized strep-tagged entire human Tyro3 ECD captured directly on ELISA plate pre-coated with an anti-strep mAb (StrepMAB-Immo coated microplates from IBA biotech). Briefly, the 96 wells of StrepMAB-Immo coated microplate were washed three times with 300 μL of the PBS Tween 0.2% (referred as ELISA washing solution). The capture of an excess of purified strep tagged hTyro3 ECD protein was achieved by a one hour incubation at room temperature. In these experiments, 3 μg of purified protein diluted in PBS, BSA 1% (referred as ELISA diluent solution) were immobilized per well. The wells were washed three times with 300 μL of the washing solution. The non-specific binding sites on the well surface were blocked during 60 min at room temperature with 200 μL/well of blocking solution (PBS, BSA 3%). The wells were washed five times with 300 μL of the washing solution. Then, 100 μl (in duplicates) of the different concentrations of anti-Tyro3 antibodies to be tested diluted in ELISA diluent solution, were added per well and allowed to incubate during 1 hour at room temperature. An Irrelevant control IgG2656 was also added in this experiment. For anti-Tyro3 antibodies in the ScFv format, experiments were performed with 6 concentrations in duplicates (FIG. 3A). For anti-Tyro3 antibodies in the IgG format, experiments were performed with 9 concentrations in duplicates (FIG. 3B). […] For IgGs experiments, starting concentration for first dilution was 3 μg/ml and then dilutions of 3 fold in the ELISA diluent solution were performed. The wells were washed five times with 300 μL of the washing solution. […] The mix was allowed to incubated 60 min at room temperature.

Assay [4] addresses T4, recombinant His-Strep tagged human Tyro3 extracellular domain (human, UniProt Q06418 41-429).
T4 construct: also called hTyro3 ECD; full Tyro3 ECD
T4 sequence: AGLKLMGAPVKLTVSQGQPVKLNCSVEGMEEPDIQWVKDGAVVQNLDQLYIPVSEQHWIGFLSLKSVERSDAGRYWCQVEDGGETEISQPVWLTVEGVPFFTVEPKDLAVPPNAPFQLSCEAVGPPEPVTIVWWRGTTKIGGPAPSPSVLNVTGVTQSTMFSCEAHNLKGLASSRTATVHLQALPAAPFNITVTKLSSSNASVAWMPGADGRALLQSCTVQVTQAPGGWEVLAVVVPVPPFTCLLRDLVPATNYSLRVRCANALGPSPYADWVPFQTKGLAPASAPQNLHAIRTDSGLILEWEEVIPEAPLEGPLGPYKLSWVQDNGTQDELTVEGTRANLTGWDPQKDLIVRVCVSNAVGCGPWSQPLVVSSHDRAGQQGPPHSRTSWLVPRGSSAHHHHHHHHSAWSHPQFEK
The experiment in a line: sandwich ELISA, Strep-tagged fragment captured on StrepMAB plate, scFv 10 µg/mL (Table 17), anti-FLAG-HRP.

Assay [5] deals with T4, recombinant His-Strep tagged human …. The experiment in a line: sandwich ELISA, Strep-tagged hTyro3 ECD captured on StrepMAB plate, scFv 3-fold from 10 µg/mL, anti-FLAG-HRP. The protocol:
A double sandwich ELISA was developed. This assay consisted in measuring the binding of the anti-Tyro3 antibodies to be tested on immobilized strep-tagged entire human Tyro3 ECD captured directly on ELISA plate pre-coated with an anti-strep mAb (StrepMAB-Immo coated microplates from IBA biotech). Briefly, the 96 wells of StrepMAB-Immo coated microplate were washed three times with 300 μL of the PBS Tween 0.2% (referred as ELISA washing solution). The capture of an excess of purified strep tagged hTyro3 ECD protein was achieved by a one hour incubation at room temperature. In these experiments, 3 μg of purified protein diluted in PBS, BSA 1% (referred as ELISA diluent solution) were immobilized per well. The wells were washed three times with 300 μL of the washing solution. The non-specific binding sites on the well surface were blocked during 60 min at room temperature with 200 μL/well of blocking solution (PBS, BSA 3%). The wells were washed five times with 300 μL of the washing solution. Then, 100 μl (in duplicates) of the different concentrations of anti-Tyro3 antibodies to be tested diluted in ELISA diluent solution, were added per well and allowed to incubate during 1 hour at room temperature. An Irrelevant control IgG2656 was also added in this experiment. For anti-Tyro3 antibodies in the ScFv format, experiments were performed with 6 concentrations in duplicates (FIG. 3A). […]

B1: anti-Tyro3 scFv 2414 (scFv, V domains shown)
VH: EVQLVQSGADVKKPGASLTISCQASGYTFTDYWISWVRQKPGKGLEWMGQINRHASNTMYGPSFQGHVTISADRSTATAYLQWRSLEASDTAMYYCVRSGGATSGGTIPEYYQHWGPGTLVTVSS
VL: SYELTQPPSVSVSPGQTARITCSGDALPKKYAYWYQQKSGQAPVLVIYEDWKRASGIPERFSGSSSGTMATLTISGAQVEDEADYYCYSQERKGNYFVFGGGTKLTVL
notes: Tested as a single-chain Fv made in E. coli
Regarding B1, the binding result is reported as “no binding (tested: 10 µg/mL)” in assay [1], “binds” in assay [2] and “binds” in assay [3].

B2: anti-Tyro3 scFv 2415 (scFv, V domains shown)
VH: EVQLVQSGADVKKPGASLTISCQASGYTFTDYWISWVRQKPGKGLEWMGQIRGPASATHYGPSFQGHVTISADRSTATAYLQWRSLEASDTAMYYCVRHQQQTSGGTIPEYYQHWGPGTLVTVSS
VL: SYELTQPPSVSVSPGQTARITCSGDALPKKYAYWYQQKSGQAPVLVIYEDKKRISGIPERFSGSSSGTMATLTISGAQVEDEADYYCYSTSTGGNYMVFGGGTKLTVL
notes: as for B1
As to B2, the binding result in assay [2] and in assay [3] was “binds” each time.

B3: anti-Tyro3 scFv 2713 (scFv, V domains shown)
VH: EVQLVQSGADVKKPGASLTISCQASGYTFTDYWISWVRQKPGKGLEWMGRISRHGSQTYYGPSFQGHVTISADRSTATAYLQWRSLEASDTAMYYCVRAGGQTSGGTIPEYYQHWGPGTLVTVSS
VL: SYELTQPPSVSVSPGQTARITCSGDALPKKYAYWYQQKSGQAPVLVIYEDHKRASGIPERFSGSSSGTMATLTISGAQVEDEADYYCYSISPAGNYGVFGGGTKLTVL
notes: as for B1
With B3, the binding result in assay [2] and in assay [3] was “binds” throughout.

B4: anti-Tyro3 scFv 2709 (scFv, V domains shown)
VH: EVQLVQSGADVKKPGASLTISCQASGYTFTDYWISWVRQKPGKGLEWMGAISRNGSTTYYGPSFQGHVTISADRSTATAYLQWRSLEASDTAMYYCVRSGGLTSGGTIPEYYQHWGPGTLVPVSS
VL: SYELTQPPSVSVSPGQTARITCSGDALPKKYAYWYQQKSGQAPVLVIYEDKKRVSGIPERFSGSSSGTMATLTISGAQVEDEADYYCYSLAVDGNYGVFGGGTKLTVL
notes: as for B1
Consider B4, for which the binding result in assay [1] is “no binding (tested: 10 µg/mL)”; in assay [4], “binds”; in assay [2], “binds”; in assay [3], “binds”.

B5: anti-Tyro3 scFv 2412 (scFv, V domains shown)
VH: EVQLVQSGADVKKPGASLTISCQASGYTFTDYWISWVRQKPGKGLEWMGRIRPLLSHTMYGPSFQGHVTISADRSTATAYLQWRSLEASDTAMYYCVRSWLATSGGTIPEYYQHWGPGTLVTVSS
VL: SYELTQPPSVSVSPGQTARITCSGDALPKKYAYWYQQKSGQAPVLVIYEDAKRVSGIPERFSGSSSGTMATLTISGAQVEDEADYYCYSASANGNYRVFGGGTKLTVL
notes: as for B1
Take B5: the binding result in assay [2] and in assay [3] was “binds” each time.

B6: anti-Tyro3 scFv 2717 (scFv, V domains shown)
VH: EVQLVQSGADVKKPGASLTISCQASGYTFTDYWISWVRQKPGKGLEWMGEIFLPPSTTVYGPSFQGHVTISADRSTATAYLQWRSLEASDTAMYYCVRQTRLTSGGTIPEYYQHWGPGTLVTVSS
VL: SYELTQPPSVSVSPGQTARITCSGDALPKKYAYWYQQKSGQAPVLVIYEDNKRGSGIPERFSGSSSGTMATLTISGAQVEDEADYYCYSKSPEGNYMVFGGGTKLTVL
notes: as for B1
As to B6, the binding result in assay [1] is given as “no binding (tested: 10 µg/mL)”; in assay [2], “no binding (tested: 10 µg/mL)”; in assay [5], “binds”; in assay [3], “binds”.

B7: anti-Tyro3 scFv 2711 (scFv, V domains shown)
VH: EVQLVQSGADVKKPGASLTISCQASGYTFTDYWISWVRQKPGKGLEWMGQIRGQHSSTLYGPSFQGHVTISADRSTATAYLQWRSLEASDTAMYYCVRHGASTSGGTIPEYYQHWGPGTLVTVSS
VL: SYELTQPPSVSVSPGQTARITCSGDALPKKYAYWYQQKSGQAPVLVIYEDAKRSSGIPERFSGSSSGTMATLTISGAQVEDEADYYCYSLSDSGNYFVFGGGTKLTVL
notes: as for B1
B7: the binding result in assay [2] and in assay [3] was “binds” in each case.

B8: anti-Tyro3 scFv 2410 (scFv, V domains shown)
VH: EVQLVQSGADVKKPGASLTISCQASGYTFTDYWISWVRQKPGKGLEWMGQIVPRASRTNYGPSFQGHVTISADRSTATAYLQWRSLEASDTAMYYCVRPYFQTSGGTIPEYYQHWGPGTLVTVSS
VL: SYELTQPPSVSVSPGQTARITCSGDALPKKYAYWYQQKSGQAPVLVIYEDEKRASGIPERFSGSSSGTMATLTISGAQVEDEADYYCYSQERNGNYAVFGGGTKLTVL
notes: as for B1
Regarding B8, the binding result was “no binding (tested: 10 µg/mL)” in assay [1], “binds” in assay [2] and “binds” in assay [3].

These data come from patent US20180105596A1 (ELSALYS BIOTECH, published 2018).
